Assay results: patent US20120213804A1 (Pfizer, published 2012)
Substitutions are numbered along the chain they refer to. Names and notes keep the numbering of the source. Where two headings read alike, the source gives them in different places.

Assays:
[1] = target: Fc-CD22 (UniProt P20273); test: BIACORE, Fc-CD22 on CM5 chip; competitor G5/44 pre-bound
[2] = target: Fc-CD22 (UniProt P20273); test: BIACORE, Fc-CD22 on CM5 chip, no G5/44
[3] = target: T1, CD22mFc (UniProt P20273 20-687, limits assumed); test: Biacore 2000; CD22mFc captured via immobilized anti-mouse Fc, antibody in the soluble phase; column head '~KD nM'
T1 construct: also called CD22-mFc constructs; not shown: mouse Fc (captured by anti-mouse Fc)
Protocol: (§1) All binding measurements were performed in the BIACORE™ 2000 instrument (Pharmacia Biosensor AB, Uppsala, Sweden). The assay was performed by capture of CD22mFc via the immobilized anti-mouse Fc. The antibody was in the soluble phase. Samples, standard, and controls (50 μl) were injected over immobilized anti-mouse Fc followed by antibody in the soluble phase. After each cycle, the surface was regenerated with 50 μl of 40 mM HCl at 30 μl/min. The kinetic analysis was performed using the BIAevaluation 3.1 software (Pharmacia).

[4] = target: T1, CD22mFc; test: BIACORE 2000, CD22mFc captured via anti-mouse Fc
Protocol: as §1

[5] = target: T1, CD22mFc; test: SPR (BIACORE 2000), CD22mFc on CM5 chip, global 1:1 Langmuir fit with mass transfer
Protocol: (§2) Biosensor analyses were carried out using a BIACORE™ 2000 (BIAcore AB, Uppsala, Sweden). CD22mFc was covalently immobilized on the N-hydroxysuccinimide-activated carboxymethyl dextran-coated biosensor chip (CM5) using a standard amine-coupling chemistry at a protein density of approximately 2000 resonance units. […] After the binding phase, dissociation of the bound antibody was monitored by washing the chip with the HBS buffer over a 15 minute period. The antigenic surface was regenerated by washing the Biosensor chip with 15 μl of the regeneration buffer (10 mM NaOH and 200 mM NaCl) for 30 seconds, followed by a stabilization time of 2 minutes before the next cycle. Kinetic constants were calculated by nonlinear least square regression analysis using a 1:1 Langmuir binding curve fitting model and BIAevaluation program (version 3.0, BIAcore).

[6] = target: T2, human CD22 on the surface of B cells (Ramos, RL, Daudi, Raji lymphoma cells; B cell lymphoma tissue) (human, UniProt P20273 20-847); test: cell-based or functional assay
[7] = target: T3, CD33 on CD22- CD33+ HL-60 leukemia cells (human, UniProt P20138 18-364); test: flow cytometry
T3 construct: whole, on cells
Excerpt: Purified human polyclonal IgG1 and IgG4 were also used as negative controls.

[8] = target: T2, human CD22 on the surface of B cells …; test: cell-based or functional assay; remark: listed apart in the source
[9] = target: T2, human CD22 on the surface of B cells …; test: cell-based or functional assay; remark: listed apart in the source
[10] = target: T1, CD22mFc; test: SPR (BIACORE 2000), CD22mFc immobilized on CM5 chip
Protocol: as §2

T3 sequence (P20138 18-364): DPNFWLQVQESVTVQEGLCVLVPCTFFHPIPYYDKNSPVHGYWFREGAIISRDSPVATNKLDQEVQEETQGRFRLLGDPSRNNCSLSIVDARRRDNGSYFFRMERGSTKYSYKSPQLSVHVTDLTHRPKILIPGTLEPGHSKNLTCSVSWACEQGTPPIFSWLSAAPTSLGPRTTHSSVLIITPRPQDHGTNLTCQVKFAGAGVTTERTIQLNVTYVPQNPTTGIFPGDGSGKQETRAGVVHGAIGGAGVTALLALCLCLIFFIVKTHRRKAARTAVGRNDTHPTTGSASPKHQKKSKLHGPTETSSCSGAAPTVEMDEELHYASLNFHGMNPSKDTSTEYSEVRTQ

## anti-CD19 antibody BU12 (Celltech)
[1]
  Inhibition by G544 (%): 0%
  Response 2 with G544 (combined response, RU): 603 RU
  Response 3 (Response 2-1) (RU): -83.5 RU
  Response 3 adjusted for OFF rate of G544 (RU): 0 RU

## anti-CD22 antibody SHCL-1, Leu 14 (Becton Dickinson)
[2]
  Binding of 2nd mAb without G544 adjusted for background (RU): 29.3 RU
[1]
  Inhibition by G544 (%): 69%
  Response 2 with G544 (combined response, RU): 580 RU
  Response 3 (Response 2-1) (RU): -74.5 RU
  Response 3 adjusted for OFF rate of G544 (RU): 9 RU

## anti-CD22 antibody BLCAM, HD239 (Santa Cruz Biotech)
[2]
  Binding of 2nd mAb without G544 adjusted for background (RU): 19.3 RU
[1]
  Inhibition by G544 (%): 91%
  Response 2 with G544 (combined response, RU): 629 RU
  Response 3 (Response 2-1) (RU): -81.8 RU
  Response 3 adjusted for OFF rate of G544 (RU): 1.7 RU

## anti-CD22 antibody To 15 (Dako Corp)
[2]
  Binding of 2nd mAb without G544 adjusted for background (RU): 615 RU
[1]
  Inhibition by G544 (%): 7%
  Response 2 with G544 (combined response, RU): 1160 RU
  Response 3 (Response 2-1) (RU): 487 RU
  Response 3 adjusted for OFF rate of G544 (RU): 570 RU

## anti-CD22 antibody 4 KB128 (Dako Corp)
[2]
  Binding of 2nd mAb without G544 adjusted for background (RU): 739 RU
[1]
  Inhibition by G544 (%): 0%
  Response 2 with G544 (combined response, RU): 1340 RU
  Response 3 (Response 2-1) (RU): 652 RU
  Response 3 adjusted for OFF rate of G544 (RU): 736 RU

B1: chimeric 5/44 variant K60R (antibody, V domains shown)
VH: EVQLQQSGTVLARPGASVKMSCKASGYRFTNYWIHWVKQRPGQGLEWIGGINPGNNYTTYRRNLKGKATLTAVTSASTAYMDLSSLTSEDSAVYYCTREGYGNYGAWFAYWGQGTLVTVSS
VL: DVVVTQTPLSLPVSFGDQVSISCRSSQSLANSYGNTFLSWYLHKPGQSPQLLIYGISNRFSGVPDRFTGSGSGTDFTLKISTIKPEDLGMYYCLQGTHQPYTFGGGTKLEIKR
notes: Human kappa / human gamma-4 constant regions; The position is as printed
[3]
  Kd: ~200 pM

B2: chimeric 5/44 variant T57A (antibody, V domains shown)
VH: B1 VH with T58A, R61K
VL: B1 VL
notes: Human kappa / human gamma-4 constant regions; The position is as printed (CDR-H2, Kabat definition); also called construct T57A
[3]
  Kd: ~70 pM
[4]
  affinity improvement compared to the chimeric 5/44 (fold): ~5 fold

B3: chimeric 5/44 variant N55Q (antibody, V domains shown)
VH: B1 VH with N56Q, R61K
VL: B1 VL
notes: as for B1
[3]
  Kd: ~300 pM

B4: CMC-544 (G5/44-NAc-gamma-calicheamicin DMH AcBut conjugate), preparation not specified (antibody, human IgG4 S228P, kappa, V domains shown)
VH: EVQLVQSGAEVKKPGASVKVSCKASGYRFTNYWIHWVRQAPGQGLEWIGGINPGNNYATYRRKFQGRVTMTADTSTSTVYMELSSLRSEDTAVYYCTREGYGNYGAWFAYWGQGTLVTVSS
VL: DVQVTQSPSSLSASVGDRVTITCRSSQSLANSYGNTFLSWYLHKPGKAPQLLIYGISNRFSGVPDRFSGSGSGTDFTLTISSLQPEDFATYYCLQGTHQPYTFGQGTKVEIKR
modifications: NAc-gamma calicheamicin DMH AcBut conjugated to the antibody; chain and residues not stated
notes: also called NAc-Gamma Calicheamicin DMH AcBut-G5/44 immunoconjugate
[5]
  Kd: 200 pM
[6]
  killing of CD22+ target cells relative to the unconjugated drug: ≥ 10 times
[7]
  binding result: no binding

B5: CMC-544, CMC-544 process, loading 65 µg/mg (antibody, human IgG4 S228P, kappa, V domains shown)
VH: B4 VH
VL: B4 VL
modifications: NAc-gamma calicheamicin DMH AcBut conjugated, loading 65 µg/mg; chain and residues not stated
[8]
  growth inhibition IC50, Daudi #1: 21 pM of calicheamicin
  growth inhibition IC50, RL #1: 6 pM of calicheamicin
  growth inhibition IC50, RL #2: 12 pM of calicheamicin
  growth inhibition IC50, Raji #1: 500 pM of calicheamicin
  growth inhibition IC50, Raji #2: 560 pM of calicheamicin
  growth inhibition IC50, Ramos #1: 200 pM of calicheamicin
  growth inhibition IC50, Ramos #2: 260 pM of calicheamicin
[9]
  growth inhibition IC50, Daudi #1: 0.32 µg/mL of antibody
  growth inhibition IC50, RL #1: 0.09 µg/mL of antibody
  growth inhibition IC50, RL #2: 0.18 µg/mL of antibody
  growth inhibition IC50, Raji #1: 7.69 µg/mL of antibody
  growth inhibition IC50, Raji #2: 8.62 µg/mL of antibody
  growth inhibition IC50, Ramos #1: 3.08 µg/mL of antibody
  growth inhibition IC50, Ramos #2: 4 µg/mL of antibody

B6: CMC-544 (21 µg/mg) (CMA-676 procedure) (antibody, human IgG4 S228P, kappa, V domains shown)
VH: B4 VH
VL: B4 VL
modifications: NAc-gamma calicheamicin DMH AcBut conjugated, loading 21 µg/mg; chain and residues not stated
[10]
  Ka: 8.1e+09 M⁻¹
  Kd: 120 pM
  koff: 6.1e-05 s⁻¹
  kon: 490000 M⁻¹ s⁻¹

B7: CMC-544, CMA-676 process, loading 35 µg/mg (antibody, human IgG4 S228P, kappa, V domains shown)
VH: B4 VH
VL: B4 VL
modifications: NAc-gamma calicheamicin DMH AcBut conjugated, loading 35 µg/mg; chain and residues not stated
[8]
  growth inhibition IC50, Daudi #1: 80 pM of calicheamicin
  growth inhibition IC50, RL #1: 30 pM of calicheamicin
  growth inhibition IC50, RL #2: 40 pM of calicheamicin
  growth inhibition IC50, Raji #2: 520 pM of calicheamicin
  growth inhibition IC50, Ramos #1: 130 pM of calicheamicin
[9]
  growth inhibition IC50, Daudi #1: 2.29 µg/mL of antibody
  growth inhibition IC50, RL #1: 0.86 µg/mL of antibody
  growth inhibition IC50, RL #2: 1.14 µg/mL of antibody
  growth inhibition IC50, Raji #2: 14.9 µg/mL of antibody
  growth inhibition IC50, Ramos #1: 3.71 µg/mL of antibody

B8: humanized anti-CD22 antibody G5/44 (antibody, human IgG4 S228P, kappa, V domains shown)
VH: B4 VH
VL: B4 VL
notes: also called Humanized G5/44; gL1gH7
[5]
  Kd: 235 pM
[10]
  Ka: 7.9e+09 M⁻¹
  Kd: 130 pM
  koff: 2.8e-05 s⁻¹
  kon: 220000 M⁻¹ s⁻¹
[7]
  binding result: no binding

B9: CMC-544 (87 µg/mg) (CMC-544 procedure) (antibody, human IgG4 S228P, kappa, V domains shown)
VH: B4 VH
VL: B4 VL
modifications: NAc-gamma calicheamicin DMH AcBut conjugated, loading 87 µg/mg; chain and residues not stated
[10]
  Ka: 6.6e+09 M⁻¹
  Kd: 150 pM
  koff: 6.9e-05 s⁻¹
  kon: 460000 M⁻¹ s⁻¹
